Data on one molecule can be found in patent US20180153986A1 (BRIGHAM AND WOMEN S HOSPITAL, published 2018).

In this assay the target is T1, human CEACAM1 (carcinoembryonic antigen related cell adhesion molecule 1) (human, UniProt P13688 35-526, limits assumed).
T1 construct: also called hCEACAM1; BGP
T1 sequence: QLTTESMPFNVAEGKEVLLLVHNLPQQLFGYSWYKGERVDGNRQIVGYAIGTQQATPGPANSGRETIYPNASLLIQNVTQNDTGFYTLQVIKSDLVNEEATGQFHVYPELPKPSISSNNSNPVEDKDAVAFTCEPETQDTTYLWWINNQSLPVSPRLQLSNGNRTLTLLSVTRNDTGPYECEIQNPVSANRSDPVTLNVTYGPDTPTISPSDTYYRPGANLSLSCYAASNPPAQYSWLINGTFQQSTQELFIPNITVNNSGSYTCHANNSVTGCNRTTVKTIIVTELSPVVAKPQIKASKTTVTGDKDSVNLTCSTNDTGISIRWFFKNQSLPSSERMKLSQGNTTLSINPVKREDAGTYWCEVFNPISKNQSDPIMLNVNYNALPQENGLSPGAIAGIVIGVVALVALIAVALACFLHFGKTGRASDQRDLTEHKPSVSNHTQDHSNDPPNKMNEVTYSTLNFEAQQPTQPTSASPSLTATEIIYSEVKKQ
In words: method not described ('as demonstrated herein'); support is structural prediction and co-expression.

B1: human TIM-1 (T-cell immunoglobulin and mucin domain-containing protein 1) (receptor)
chain: SVKVGGEAGPSVTLPCHYSGAVTSMCWNRGSCSLFTCQNGIVWTNGTHVTYRKDTRYKLLGDLSRRDVSLTIENTAVSDSGVYCCRVEHRGWFNDMKITVSLEIVPPKVTTTPIVTTVPTVTTVRTSTTVPTTTTVPTTTVPTTMSIPTTTTVLTTMTVSTTTSVPTTTSIPTTTSVPVTTTVSTFVPPMPLPRQNHEPVATSPSSPQPAETHPTTLQGAIRREPTSSPLYSYTTDGNDTVTESSDGLWNNNQTQLFLEHSLLTANTTKGIYAGVCISVLVLLALLGVIIAKKYFFKKEVQQLSVSFSSLQIKALQNAVEKEVQAEDNIYIENSLYATD
notes: also called HAVCR; HAVCR-1
For B1, the binding result was “binds”.
